Reference: paper PMC10341776

Target: chloroplast FOF1-ATP synthase from spinach chloroplasts (spinach (Spinacia oleracea)) (UniProt P06450)
Test: SAXS; AEX-purified cFOF1 dialysed overnight against 30 mM HEPES, 2 mM MgCl2, 0.04% (w/v) tPCC-α-M, 450 mM NaCl; room temperature; fit with a mixture of monomers and docked dimers (OLIGOMER); monomer to dimer

fraction of dimeric cFOF1 (model with F1/F1 dimers): 68%
stoichiometry N: 2
Substance: chloroplast FOF1-ATP synthase from spinach chloroplasts, P06450 1-507; P00825 1-498; P05435 42-364; P00833 1-134; P11402 71-257; P06451 1-247; P06453 1-184; P31853 76-222; P69447 1-81
